{"source": "paper PMC2233886", "key": {"eCFP-CNGB1": {"target": "eCFP-CNGB1 (UniProt Q28181)", "sequence (Q28181 whole entry)": "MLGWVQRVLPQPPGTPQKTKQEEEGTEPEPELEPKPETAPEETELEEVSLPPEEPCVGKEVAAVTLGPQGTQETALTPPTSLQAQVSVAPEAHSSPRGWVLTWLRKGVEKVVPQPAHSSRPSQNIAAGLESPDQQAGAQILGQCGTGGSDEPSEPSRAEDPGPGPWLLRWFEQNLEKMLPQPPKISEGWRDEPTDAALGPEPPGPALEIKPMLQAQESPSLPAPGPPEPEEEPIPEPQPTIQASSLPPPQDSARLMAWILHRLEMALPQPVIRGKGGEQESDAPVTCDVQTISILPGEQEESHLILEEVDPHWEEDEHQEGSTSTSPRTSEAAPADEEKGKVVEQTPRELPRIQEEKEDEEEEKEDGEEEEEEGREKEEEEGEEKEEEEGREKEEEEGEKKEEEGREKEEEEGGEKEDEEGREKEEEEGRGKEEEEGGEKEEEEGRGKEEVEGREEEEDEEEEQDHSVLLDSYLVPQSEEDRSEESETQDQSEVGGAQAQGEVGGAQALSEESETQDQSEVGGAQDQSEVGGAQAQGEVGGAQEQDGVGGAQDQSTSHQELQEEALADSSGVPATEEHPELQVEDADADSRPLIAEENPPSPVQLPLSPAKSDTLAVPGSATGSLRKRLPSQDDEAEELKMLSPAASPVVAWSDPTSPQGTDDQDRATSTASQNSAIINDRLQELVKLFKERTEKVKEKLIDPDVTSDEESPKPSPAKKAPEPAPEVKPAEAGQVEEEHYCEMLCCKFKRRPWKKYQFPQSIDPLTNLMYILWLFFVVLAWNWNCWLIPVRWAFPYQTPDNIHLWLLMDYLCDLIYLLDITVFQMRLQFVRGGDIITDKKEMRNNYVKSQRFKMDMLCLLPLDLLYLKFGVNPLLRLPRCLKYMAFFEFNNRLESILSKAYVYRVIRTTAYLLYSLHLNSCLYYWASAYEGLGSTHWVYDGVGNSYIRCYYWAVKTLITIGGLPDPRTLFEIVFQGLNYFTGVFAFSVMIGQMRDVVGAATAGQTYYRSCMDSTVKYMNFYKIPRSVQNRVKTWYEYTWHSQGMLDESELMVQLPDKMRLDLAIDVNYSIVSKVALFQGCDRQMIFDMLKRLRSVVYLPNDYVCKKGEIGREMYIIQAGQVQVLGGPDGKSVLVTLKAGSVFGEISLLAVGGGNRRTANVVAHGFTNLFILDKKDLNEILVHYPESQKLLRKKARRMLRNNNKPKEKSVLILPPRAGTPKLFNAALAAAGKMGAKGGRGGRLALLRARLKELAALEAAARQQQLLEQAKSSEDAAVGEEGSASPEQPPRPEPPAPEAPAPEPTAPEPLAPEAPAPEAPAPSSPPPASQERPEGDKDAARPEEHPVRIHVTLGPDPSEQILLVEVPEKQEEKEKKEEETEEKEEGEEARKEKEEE", "experiment": "FRET or BRET"}, "[1]": {"target": "heteromeric CNGA1/CNGB1 channels (UniProt Q00194)", "sequence (Q00194 whole entry K2E, chain 1 of 2)": "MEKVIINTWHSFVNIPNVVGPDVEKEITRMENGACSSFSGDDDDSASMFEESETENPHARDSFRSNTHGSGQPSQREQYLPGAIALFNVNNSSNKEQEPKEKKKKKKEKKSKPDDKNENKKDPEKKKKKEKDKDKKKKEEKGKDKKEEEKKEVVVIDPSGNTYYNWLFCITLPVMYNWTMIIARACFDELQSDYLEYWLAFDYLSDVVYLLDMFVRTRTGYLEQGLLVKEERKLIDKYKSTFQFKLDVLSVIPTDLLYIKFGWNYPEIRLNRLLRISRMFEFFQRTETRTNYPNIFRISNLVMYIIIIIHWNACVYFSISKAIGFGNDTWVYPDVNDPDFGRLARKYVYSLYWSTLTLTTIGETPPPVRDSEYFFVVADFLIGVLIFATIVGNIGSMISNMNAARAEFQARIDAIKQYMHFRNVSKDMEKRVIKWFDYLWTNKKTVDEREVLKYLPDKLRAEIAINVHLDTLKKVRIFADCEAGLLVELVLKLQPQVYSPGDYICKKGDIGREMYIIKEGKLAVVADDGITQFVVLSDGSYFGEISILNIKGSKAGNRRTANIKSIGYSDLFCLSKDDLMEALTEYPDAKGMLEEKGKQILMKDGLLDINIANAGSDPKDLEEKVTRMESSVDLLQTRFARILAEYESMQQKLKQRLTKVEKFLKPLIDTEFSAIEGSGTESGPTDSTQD", "sequence (Q28181 whole entry, chain 2 of 2, further chain)": "as the sequence (Q28181 whole entry) above", "experiment": "patch-clamp fluorometry"}, "CNGA1-eYFP": {"target": "CNGA1-eYFP (UniProt Q00194)", "sequence (Q00194 whole entry K2E)": "as the sequence (Q00194 whole entry K2E, chain 1 of 2) above", "experiment": "FRET or BRET"}}, "data": [{"substance": "CaM conjugated to the fluorescent dye Alexa-488 (from UniProt P62157 1-149) (natural protein)", "values": [{"measurement": "time constant of eCFP quenching (250 nM CaM-488)", "setting": "eCFP-CNGB1", "result": 24.6, "unit": "s"}, {"measurement": "time constant of fluorescence decrease (washout in Ca2+-free solution)", "setting": "[1]", "result": 51, "unit": "s"}, {"measurement": "time constant of fluorescence increase (250 nM CaM-488)", "setting": "[1]", "result": 18.5, "unit": "s"}]}, {"substance": "eCFP-CNGB1 (from UniProt Q28181 677-1394) (domain or fragment)", "values": [{"measurement": "F530/F480 ratio (initial, before Ca2+/CaM)", "setting": "CNGA1-eYFP", "result": 1.8}]}, {"substance": "eCFPΔCaM-CNGB1 (from UniProt Q28181 702-1394) (domain or fragment)", "values": [{"measurement": "reduction in FRET against eCFP-CNGB1", "setting": "CNGA1-eYFP", "result": 29, "unit": "%"}]}]}
